The target of the test is Fluorescein-labeled murine N-WASP-VCA (a.a. 399-501) (murine) (UniProt Q91YD9). Kind of test: fluorescence polarisation. In general terms: Polarisation of emitted light reports the rotation of a fluorescent probe.

For one substance, Kd results are on record in article PMC5964048.

Regarding “ACD-cross-linked actin oligomers (from UniProt P68135 1-377)”, the Kd (in general, the free concentration of one partner at which half of the binding sites on the other are occupied at equilibrium, for simple one-to-one binding) was found to be 8 nM.
